Measured values: article PMC10331486, “Characterization of an evolutionarily distinct bacterial ceramide kinase from Caulobacter crescentus” (The Journal of Biological Chemistry, 2023)

T1: CpgB (CCNA_01218), bacterial ceramide kinase (Caulobacter vibrioides, UniProt A0A0H3C600)
T1 construct: full-length gene, N-terminal His tag (pET28a NdeI/EcoRI), expressed in E. coli BL21(DE3), HisTrap purified, soluble; tag removal not mentioned
T1 sequence (A0A0H3C600 1-330): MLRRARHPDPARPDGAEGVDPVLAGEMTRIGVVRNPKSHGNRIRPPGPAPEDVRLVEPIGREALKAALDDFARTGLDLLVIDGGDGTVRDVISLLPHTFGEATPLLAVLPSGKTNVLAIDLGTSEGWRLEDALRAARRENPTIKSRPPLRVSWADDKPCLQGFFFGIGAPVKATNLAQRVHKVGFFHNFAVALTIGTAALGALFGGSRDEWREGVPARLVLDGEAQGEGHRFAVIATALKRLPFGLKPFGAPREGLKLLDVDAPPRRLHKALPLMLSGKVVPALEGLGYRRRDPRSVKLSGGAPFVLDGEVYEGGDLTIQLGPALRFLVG

B1: CpgB (CCNA_01218), bacterial ceramide kinase (Caulobacter vibrioides NA1000) (protein)
chain: T1 sequence (A0A0H3C600 1-330)
notes: full-length gene, N-terminal His tag (pET28a NdeI/EcoRI), expressed in E. coli BL21(DE3), HisTrap purified, soluble; tag removal not mentioned

How the values were obtained:
[1] = target: T1, CpgB (CCNA_01218), bacterial ceramide kinase; test: NBD-ceramide kinase assay, TLC fluorescence imaging; format: biochemical; conditions: read-out: % inhibition at 300 nM
[2] = substrate: CCCCCCCCCCCCC/C=C/[C@@H](O)[C@H](CO)NC(=O)CCCCCNc1ccc([N+](=O)[O-])c2nonc12; test: as above; format: biochemical, Caulobacter vibrioides; conditions: 1 mM ATP fixed, 15 mM Mg2+, 20 mM Hepes pH 7.4, 30 °C, labelled compound (fluorescent NBD)
[3] = substrate: Nc1ncnc2c1ncn2[C@@H]1O[C@H](COP(=O)(O)OP(=O)(O)OP(=O)(O)O)[C@@H](O)[C@H]1O; test: purified protein; conditions: 160 μM NBD-C6-ceramide fixed, 15 mM Mg2+, 20 mM Hepes pH 7.4, 30 °C

| Molecule | inhibition at 0.3 µM [1] [%] | Km [2] [µM] | Km [3] [mM] |
| --- | --- | --- | --- |
| O=C(Nc1nc2ccc(NC(=O)C34CC5CC(CC(C5)C3)C4)cc2s1)c1ccccc1 [NVP-231] | 20 to 25 | – | – |
| B1 | – | 19.2 ± 5.5 | 0.29 ± 0.07 |
